Holding throughout (test): PanK enzyme assay (Michaelis-Menten kinetics)
Holding throughout (assay type): biochemical, E. coli
Holding throughout (conditions): other: transformation by PanK, 25° C., Tris-HCl pH 7.6, triplicate

Substrate in data set [1]: CC(C)(CO)[C@@H](O)C(=O)NCCC(=O)NCCSCCCCCC(=O)NC[C@H]1O[C@H](O[C@H]2[C@H](O)[C@@H](O)[C@H](N)C[C@@H]2N)[C@H](N)[C@@H](O)[C@@H]1O
The procedure:
(§1) PanK enzyme assay. The E. coli pantothenate kinase (PanK or coaA enzyme) was expressed and purified as previously described. Enzyme activity was measured as described in the literature [Strauss E, Begley T P J Biol Chem, 2002, 277:48205-48209]. This assay couples the production of ADP to the consumption of NADH through the activity of pyruvate kinase and lactic dehydrogenase. The decrease of NADH concentration was monitored at 340 nm. Reactions were performed at 25° C. in an Agilent 8453 UV-Vis spectrophotometer coupled to an Agilent 89090A Peltier temperature controller. Kinetic parameters were determined by fitting the rate data into the Michaelis-Menten equation using Prism 4.0 (GraphPad). Each reaction mixture (500 μL) contained ATP (1.5 mM), NADH (0.3 mM), phosphoenolpyruvate (0.5 mM), MgCl2 (10 mM), KCl (20 mM), pyruvate kinase (5 units), lactic dehydrogenase (5 units), and PanK (5 μg, 278 nM) in Tris-HCl buffer (50 mM, pH 7.6). The reaction was initiated by addition of the desired substrate (10-160 μM). All data points are from triplicate experiments.

Substrate in data set [2]: [H][C@]1(O[C@H]2[C@H](O)[C@@H](O)[C@H](N)C[C@@H]2N)O[C@H](CNC(=O)CCCCSCCNC(=O)CCNC(=O)[C@H](O)C(C)(C)CO)[C@@H](O)[C@H](O)[C@H]1N
The procedure:
as §1

Substrate in data set [3]: [H][C@]1(O[C@H]2[C@H](O)[C@@H](O)[C@H](N)C[C@@H]2N)O[C@H](CNC(=O)CCCSCCNC(=O)CCNC(=O)[C@H](O)C(C)(C)CO)[C@@H](O)[C@H](O)[C@H]1N
The procedure: as §1

Substrate in data set [4]: [H][C@]1(O[C@H]2[C@H](O)[C@@H](O)[C@H](N)C[C@@H]2N)O[C@H](CNC(=O)CCSCCNC(=O)CCNC(=O)[C@H](O)C(C)(C)CO)[C@@H](O)[C@H](O)[C@H]1N
The procedure: as §1

B1: E. coli pantothenate kinase (PanK or coaA enzyme) (Escherichia coli K-12) (protein)
chain: MSIKEQTLMTPYLQFDRNQWAALRDSVPMTLSEDEIARLKGINEDLSLEEVAEIYLPLSRLLNFYISSNLRRQAVLEQFLGTNGQRIPYIISIAGSVAVGKSTTARVLQALLSRWPEHRRVELITTDGFLHPNQVLKERGLMKKKGFPESYDMHRLVKFVSDLKSGVPNVTAPVYSHLIYDVIPDGDKTVVQPDILILEGLNVLQSGMDYPHDPHHVFVSDFVDFSIYVDAPEDLLQTWYINRFLKFREGAFTDPDSYFHNYAKLTKEEAIKTAMTLWKEINWLNLKQNILPTRERASLILTKSANHAVEEVRLRK
notes: made in house
For the protein B1, the Michaelis-Menten constant (Km) in data set [1] was found to be 170 ± 50 µM; in data set [2] it was 230 ± 69 µM; in data set [3], 350 ± 80 µM; in data set [4], 480 ± 160 µM. The values for the kcat in data set [2], in data set [3] and in data set [4] were 0.52 ± 0.08 s⁻¹, 0.5 ± 0.05 s⁻¹ and 0.47 ± 0.05 s⁻¹, respectively. In addition, the values for the specificity constant (kcat/Km) in data set [2], in data set [3] and in data set [4] were 2300 ± 800 M⁻¹ s⁻¹, 1400 ± 400 M⁻¹ s⁻¹ and 1000 ± 300 M⁻¹ s⁻¹, respectively.
